Source: US5622930A, “C1 inhibitor muteins and uses thereof” (CLB, priority 1991, dated 1997)

Test system: C1s
Assay: radioimmune assay of complex formation of C1 inhibitor muteins with solid phase C1s
Format: binding
Details: muteins altered only at P3 (position 442, substituted for Val), FIG. 3
From the text: FIG. 2 presents a generalized assay screening format for determining both the inhibitory (complex formation) or protease sensitivity (inactivation) of the C1 muteins. The latter measures inactivation of the C1 inhibitor muteins by non-target proteases. This procedure is also described by Eldering et al., 1988, in J. of Biological Chem., 263: 11776. Modifications of these methods are also known in the art.
Generally, inhibitor activity of C1 muteins may be determined by measuring complex formation between the C1 inhibitor and a substrate. The preferred substrates are, of course, C1s, Kallikrein, B-12a, and plasmin. The C1 inhibitor, or C1 inhibitor muteins, inhibit the protease activity of the substrate by forming a covalent bond with the substrate. These molecules were purified by techniques known in the art, or as described by Liebermann, H., etal., 1984, J. Mol. Biol., 177: 531 and Nuijens, J.,et al., 1987, Immunology, 61: 387.
The preferred assay is a radioimmune assay based on the observation that functional C1 inhibitor muteins bind to activated target substrate, such as C1s. The assay can be performed in several ways, but preferably purified activated C1s is coupled to a solid matrix, preferably Sepharose 4B via cyanogen bromide as is known in the art. Coupled C1s is incubated in an appropriately buffered solution containing, if desired, a small amount of detergent, preferably Tween-20. The latter is used at a concentration of about 0.1% (w/v). The capacity of the C1 inhibitor muteins to complex with the target substrate can be detected using anti-C1 inhibitor mutein antibody. Alternatively, a radiolabelled second antibody can be used to detect the bound first antibody. The antibody may be polyclonal or monoclonal and is incubated for a sufficient time to permit detectible binding of the antibody to the C1 inhibitor to occur. After the appropriate washing steps are conducted whereby non-specifically bound radiolabelled antibody is separated from antibody bound to C1 inhibitor muteins, the amount of radioactivity associated with the latter is determined. In this way, and incorporating the appropriate controls in the assay scheme, the inhibitory capacity of the C1 muteins is determined.
The general procedures for determining both the inhibitory or non-target protease sensitivity of the C1 inhibitor muteins are shown in FIG. 2. The procedures involving C1s will be described briefly, the procedures for the other substrates is similar with modifications as noted by Eldering, 1988, J. Biological Chem., 263: 11776, and as shown by Nuijens et al., above.
As mentioned above, the radioimmune assay to determine the C1 inhibitor activity of the various muteins is based on the observation that functional C1 inhibitor mutein will bind to activated C1s. Thus, purified activated C1s is coupled to CNBr Sepharose 4B and suspended in phosphate-buffered saline, pH 7.4 10 mM EDTA, and 0.1% (w/v) Tween-20. Next, 0.3 ml of this mixture containing 1.5 μg of activated C1s is incubated with various dilutions of the C1 inhibitor muteins for 5 hours. The Sepharose 4B beads are collected, extensively washed, and complexed C1 inhibitor mutein incubated (>4hours) with ^125 I-polyclonal anti-C1 antibody. The antibody is described by Hack, et al., above. The Sepharose beads are washed, and bound radioactivity determined using a LKB 1260 multigamma II gamma counter.

B1: P3-arg: C1 inhibitor mutein with Arg substituted for Val at position 442 (P3) (protein, UniProt P05155 23-500, looked up, variant V442R)
Plasma protease C1 inhibitor: NPNATSSSSQDPESLQDRGEGKVATTVISKMLFVEPILEVSSLPTTNSTTNSATKITANTTDEPTTQPTTEPTTQPTIQPTQPTTQLPTDSPTQPTTGSFCPGPVTLCSDLESHSTEAVLGDALVDFSLKLYHAFSAMKKVETNMAFSPFSIASLLTQVLLGAGENTKTNLESILSYPKDFTCVHQALKGFTTKGVTSVSQIFHSPDLAIRDTFVNASRTLYSSSPRVLSNNSDANLELINTWVAKNTNNKISRLLDSLPSDTRLVLLNAIYLSAKWKTTFDPKKTRMEPFHFKNSVIKVPMMNSKKYPVAHFIDQTLKAKVGQLQLSHNLSLVILVPQNLKHRLEDMEQALSPSVFKAIMEKLEMSKFQPTLLTLPRIKVTTSQDMLSIMEKLEFFDFSYDLNLCGLTEDPDLQVSAMQHQTVLELTETGVEAAAASAISRARTLLVFEVQQPFLFVLWDQQHKFPVFMGRVYDPRA
complex formation (inhibitory activity), order among P3 muteins: Arg=Gly<Ala<Leu<wild-type=Thr

B2: P3-thr: C1 inhibitor mutein with Thr substituted for Val at position 442 (P3) (protein, UniProt P05155 23-500, looked up, variant V442T)
Plasma protease C1 inhibitor: NPNATSSSSQDPESLQDRGEGKVATTVISKMLFVEPILEVSSLPTTNSTTNSATKITANTTDEPTTQPTTEPTTQPTIQPTQPTTQLPTDSPTQPTTGSFCPGPVTLCSDLESHSTEAVLGDALVDFSLKLYHAFSAMKKVETNMAFSPFSIASLLTQVLLGAGENTKTNLESILSYPKDFTCVHQALKGFTTKGVTSVSQIFHSPDLAIRDTFVNASRTLYSSSPRVLSNNSDANLELINTWVAKNTNNKISRLLDSLPSDTRLVLLNAIYLSAKWKTTFDPKKTRMEPFHFKNSVIKVPMMNSKKYPVAHFIDQTLKAKVGQLQLSHNLSLVILVPQNLKHRLEDMEQALSPSVFKAIMEKLEMSKFQPTLLTLPRIKVTTSQDMLSIMEKLEFFDFSYDLNLCGLTEDPDLQVSAMQHQTVLELTETGVEAAAASAISTARTLLVFEVQQPFLFVLWDQQHKFPVFMGRVYDPRA
complex formation (inhibitory activity), order among P3 muteins: Arg=Gly<Ala<Leu<wild-type=Thr

B3: P3-ala: C1 inhibitor mutein with Ala substituted for Val at position 442 (P3) (protein, UniProt P05155 23-500, looked up, variant V442A)
Plasma protease C1 inhibitor: NPNATSSSSQDPESLQDRGEGKVATTVISKMLFVEPILEVSSLPTTNSTTNSATKITANTTDEPTTQPTTEPTTQPTIQPTQPTTQLPTDSPTQPTTGSFCPGPVTLCSDLESHSTEAVLGDALVDFSLKLYHAFSAMKKVETNMAFSPFSIASLLTQVLLGAGENTKTNLESILSYPKDFTCVHQALKGFTTKGVTSVSQIFHSPDLAIRDTFVNASRTLYSSSPRVLSNNSDANLELINTWVAKNTNNKISRLLDSLPSDTRLVLLNAIYLSAKWKTTFDPKKTRMEPFHFKNSVIKVPMMNSKKYPVAHFIDQTLKAKVGQLQLSHNLSLVILVPQNLKHRLEDMEQALSPSVFKAIMEKLEMSKFQPTLLTLPRIKVTTSQDMLSIMEKLEFFDFSYDLNLCGLTEDPDLQVSAMQHQTVLELTETGVEAAAASAISAARTLLVFEVQQPFLFVLWDQQHKFPVFMGRVYDPRA
complex formation (inhibitory activity), order among P3 muteins: Arg=Gly<Ala<Leu<wild-type=Thr

B4: wild-type: wild type C1 inhibitor, plasma glycoprotein serine protease inhibitor with isoleucine and valine at positions 440 and 442 (protein, UniProt P05155 23-500, looked up)
Plasma protease C1 inhibitor: NPNATSSSSQDPESLQDRGEGKVATTVISKMLFVEPILEVSSLPTTNSTTNSATKITANTTDEPTTQPTTEPTTQPTIQPTQPTTQLPTDSPTQPTTGSFCPGPVTLCSDLESHSTEAVLGDALVDFSLKLYHAFSAMKKVETNMAFSPFSIASLLTQVLLGAGENTKTNLESILSYPKDFTCVHQALKGFTTKGVTSVSQIFHSPDLAIRDTFVNASRTLYSSSPRVLSNNSDANLELINTWVAKNTNNKISRLLDSLPSDTRLVLLNAIYLSAKWKTTFDPKKTRMEPFHFKNSVIKVPMMNSKKYPVAHFIDQTLKAKVGQLQLSHNLSLVILVPQNLKHRLEDMEQALSPSVFKAIMEKLEMSKFQPTLLTLPRIKVTTSQDMLSIMEKLEFFDFSYDLNLCGLTEDPDLQVSAMQHQTVLELTETGVEAAAASAISVARTLLVFEVQQPFLFVLWDQQHKFPVFMGRVYDPRA
complex formation (inhibitory activity), order among P3 muteins: Arg=Gly<Ala<Leu<wild-type=Thr

B5: P3-leu: C1 inhibitor mutein with Leu substituted for Val at position 442 (P3) (protein, UniProt P05155 23-500, looked up, variant V442L)
Plasma protease C1 inhibitor: NPNATSSSSQDPESLQDRGEGKVATTVISKMLFVEPILEVSSLPTTNSTTNSATKITANTTDEPTTQPTTEPTTQPTIQPTQPTTQLPTDSPTQPTTGSFCPGPVTLCSDLESHSTEAVLGDALVDFSLKLYHAFSAMKKVETNMAFSPFSIASLLTQVLLGAGENTKTNLESILSYPKDFTCVHQALKGFTTKGVTSVSQIFHSPDLAIRDTFVNASRTLYSSSPRVLSNNSDANLELINTWVAKNTNNKISRLLDSLPSDTRLVLLNAIYLSAKWKTTFDPKKTRMEPFHFKNSVIKVPMMNSKKYPVAHFIDQTLKAKVGQLQLSHNLSLVILVPQNLKHRLEDMEQALSPSVFKAIMEKLEMSKFQPTLLTLPRIKVTTSQDMLSIMEKLEFFDFSYDLNLCGLTEDPDLQVSAMQHQTVLELTETGVEAAAASAISLARTLLVFEVQQPFLFVLWDQQHKFPVFMGRVYDPRA
complex formation (inhibitory activity), order among P3 muteins: Arg=Gly<Ala<Leu<wild-type=Thr

B6: P3-gly: C1 inhibitor mutein with Gly substituted for Val at position 442 (P3) (protein, UniProt P05155 23-500, looked up, variant V442G)
Plasma protease C1 inhibitor: NPNATSSSSQDPESLQDRGEGKVATTVISKMLFVEPILEVSSLPTTNSTTNSATKITANTTDEPTTQPTTEPTTQPTIQPTQPTTQLPTDSPTQPTTGSFCPGPVTLCSDLESHSTEAVLGDALVDFSLKLYHAFSAMKKVETNMAFSPFSIASLLTQVLLGAGENTKTNLESILSYPKDFTCVHQALKGFTTKGVTSVSQIFHSPDLAIRDTFVNASRTLYSSSPRVLSNNSDANLELINTWVAKNTNNKISRLLDSLPSDTRLVLLNAIYLSAKWKTTFDPKKTRMEPFHFKNSVIKVPMMNSKKYPVAHFIDQTLKAKVGQLQLSHNLSLVILVPQNLKHRLEDMEQALSPSVFKAIMEKLEMSKFQPTLLTLPRIKVTTSQDMLSIMEKLEFFDFSYDLNLCGLTEDPDLQVSAMQHQTVLELTETGVEAAAASAISGARTLLVFEVQQPFLFVLWDQQHKFPVFMGRVYDPRA
complex formation (inhibitory activity), order among P3 muteins: Arg=Gly<Ala<Leu<wild-type=Thr
